Experimental data reported in patent US20190358302A1.

Target: cation independent mannose-6-phosphate receptor (CIMPR)
Assay: immobilized CIMPR affinity column, elution with free M6P

% bound to CIMPR column: 90%
Substance: Fabrazyme (agalsidase beta) (from UniProt P06280 32-429) (enzyme)
